Measurements published in paper PMC3085965 (Archives of biochemistry and biophysics, 2011).
Values belong to the binder of their own block, whether it stands above or below them.

Target: Thrombospondin-1 (human, purified from platelets) (human, UniProt P07996 19-1170, 125I label (where used as 125I-TSP1))
Assay: radioligand binding

Chain of Thrombospondin-1 (human, purified from platelets) (P07996 19-1170): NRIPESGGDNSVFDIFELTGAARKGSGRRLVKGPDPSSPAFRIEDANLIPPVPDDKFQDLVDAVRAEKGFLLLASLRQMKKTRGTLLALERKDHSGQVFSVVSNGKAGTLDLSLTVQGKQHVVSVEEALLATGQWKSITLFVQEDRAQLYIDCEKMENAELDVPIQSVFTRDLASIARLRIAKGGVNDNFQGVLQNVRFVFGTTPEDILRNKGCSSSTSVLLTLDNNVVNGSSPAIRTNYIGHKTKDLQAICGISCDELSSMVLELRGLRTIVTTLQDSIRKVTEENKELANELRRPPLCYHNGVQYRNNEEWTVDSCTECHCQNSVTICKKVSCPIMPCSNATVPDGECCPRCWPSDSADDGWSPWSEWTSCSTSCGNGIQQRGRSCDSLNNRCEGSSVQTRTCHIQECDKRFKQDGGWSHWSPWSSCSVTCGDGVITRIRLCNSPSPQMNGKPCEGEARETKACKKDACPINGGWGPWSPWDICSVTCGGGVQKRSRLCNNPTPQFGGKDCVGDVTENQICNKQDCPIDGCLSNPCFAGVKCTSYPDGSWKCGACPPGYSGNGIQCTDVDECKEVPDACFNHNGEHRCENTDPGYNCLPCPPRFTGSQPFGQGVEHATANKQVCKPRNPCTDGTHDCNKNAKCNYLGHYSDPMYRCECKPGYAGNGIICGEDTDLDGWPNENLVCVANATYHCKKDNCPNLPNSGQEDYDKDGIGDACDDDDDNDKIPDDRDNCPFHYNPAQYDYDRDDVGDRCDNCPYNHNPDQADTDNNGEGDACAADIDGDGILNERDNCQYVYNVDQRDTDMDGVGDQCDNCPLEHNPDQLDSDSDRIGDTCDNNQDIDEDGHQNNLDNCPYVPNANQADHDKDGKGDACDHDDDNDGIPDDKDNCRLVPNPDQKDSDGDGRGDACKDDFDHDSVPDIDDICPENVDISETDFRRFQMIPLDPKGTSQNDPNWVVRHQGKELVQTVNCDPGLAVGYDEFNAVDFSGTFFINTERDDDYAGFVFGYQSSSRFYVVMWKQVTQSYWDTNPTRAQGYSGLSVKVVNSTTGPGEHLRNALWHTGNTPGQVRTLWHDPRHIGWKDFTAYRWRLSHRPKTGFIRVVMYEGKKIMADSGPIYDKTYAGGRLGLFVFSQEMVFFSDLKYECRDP

- Kd: 48 nM
B1: full-length recombinant human sFRP-1 (natural protein, UniProt Q8N474 32-314, looked up)
chain: SEYDYVSFQSDIGPYQSGRFYTKPPQCVDIPADLRLCHNVGYKKMVLPNLLEHETMAEVKQQASSWVPLLNKNCHAGTQVFLCSLFAPVCLDRPIYPCRWLCEAVRDSCEPVMQFFGFYWPEMLKCDKFPEGDVCIAMTPPNATEASKPQGTTVCPPCDNELKSEAIIEHLCASEFALRMKIKEVKKENGDKKIVPKKKKPLKLGPIKKKDLKKLVLYLKNGADCPCHQLDNLSHHFLIMGRKVKSQYLLTAIHKWDKKNKEFKNFMKKMKNHECPTFQSVFK

- Kd: 95 nM
B2: full-length recombinant human sFRP-2 (natural protein, UniProt Q96HF1 25-295, looked up)
chain: LFLFGQPDFSYKRSNCKPIPANLQLCHGIEYQNMRLPNLLGHETMKEVLEQAGAWIPLVMKQCHPDTKKFLCSLFAPVCLDDLDETIQPCHSLCVQVKDRCAPVMSAFGFPWPDMLECDRFPQDNDLCIPLASSDHLLPATEEAPKVCEACKNKNDDDNDIMETLCKNDFALKIKVKEITYINRDTKIILETKSKTIYKLNGVSERDLKKSVLWLKDSLQCTCEEMNDINAPYLVMGQKQGGELVITSVKRWQKGQREFKRISRSIRKLQC
